Earlier results in patent US10870689B2, “ApoM-Fc fusion proteins, complexes thereof with sphingosine 1-phosphate (S1P), and methods for treating vascular and non-vascular diseases” (Children's Medical Center Corporation, priority 2016, dated 2020).

Experiments:
[1] = Sevvana et al. 2010; read-out: relative affinity for S1P
[2] = not associated with HDL; Faber et al. 2006

Molecule | Kd [1] | in vivo half-life [2]
recombinant ApoM: Bacterially expressed recombinant human ApoM (protein, UniProt O95445 1-188, looked up) Apolipoprotein M: MFHQIWAALLYFYGIILNSIYQCPEHSQLTTLGVDGKEFPEVHLGQWYFIAGAAPTKEELATFDPVDNIVFNMAAGSAPMQLHLRATIRMKDGLCVPRKWIYHLTEGSTDLRTEGRPDMKTELFSSSCPGGIMLNETGQGYQRFLLYNRSPHPPEKCVEEFKSLTSCLDSKAFLLTPRNQEACELSNN | ~1000 nM | 
Free ApoM: ApoM that is not associated with HDL (protein, UniProt O95445 1-188, looked up) Apolipoprotein M: MFHQIWAALLYFYGIILNSIYQCPEHSQLTTLGVDGKEFPEVHLGQWYFIAGAAPTKEELATFDPVDNIVFNMAAGSAPMQLHLRATIRMKDGLCVPRKWIYHLTEGSTDLRTEGRPDMKTELFSSSCPGGIMLNETGQGYQRFLLYNRSPHPPEKCVEEFKSLTSCLDSKAFLLTPRNQEACELSNN |  | less than 15 minutes
